Assay results taken from the supplement of paper PMC5998384.

Key:
HeLa Kyoto [1] = assay: solubility in G1/S (NP-40 vs SDS abundance) (log2 ratio); higher = more soluble; conditions: cell cycle stage: G1/S
HeLa Kyoto [2] = assay: melting temperature (median over replicates), in situ; higher = more thermally stable
HeLa Kyoto [3] = assay: solubility change mitosis vs G1/S (difference of NP-40 vs SDS log2 ratios) (log2 ratio difference); higher = more soluble in mitosis
HeLa Kyoto [4] = assay: thermal stability score vs G1/S (z-score of summed log2 fold changes over temperatures); higher = more thermally stable than in G1/S
[5] = cell cycle stage: early G1 (4.5 h after nocodazole release)
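Wherever melting temperature (median over replicates), in situ is given: HeLa Kyoto cells synchronized by double thymidine or nocodazole block, proteins quantified by TMT10plex mass spectrometry, three independent biological replicates.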
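Wherever solubility change mitosis vs G1/S (difference of NP-40 vs SDS log2 ratios) is given: synchronized HeLa Kyoto cells (double thymidine block for G1/S, nocodazole release for mitosis), protein amounts in NP-40 versus SDS lysates quantified by mass spectrometry, three biological replicates.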
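Wherever solubility in G1/S (NP-40 vs SDS abundance) is given: HeLa Kyoto cells arrested at G1/S by double thymidine block, proteins quantified by TMT10plex mass spectrometry in mild NP-40 versus SDS extracts, three biological replicates.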
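Wherever thermal stability score vs G1/S (z-score of summed log2 fold changes over temperatures) is given: synchronized HeLa Kyoto cells, proteins quantified by TMT10plex mass spectrometry, three biological replicates, mitosis taken 0.5 h after nocodazole release, G1/S directly after double thymidine block.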

CSNK2B, sequence (chain, as listed by the source): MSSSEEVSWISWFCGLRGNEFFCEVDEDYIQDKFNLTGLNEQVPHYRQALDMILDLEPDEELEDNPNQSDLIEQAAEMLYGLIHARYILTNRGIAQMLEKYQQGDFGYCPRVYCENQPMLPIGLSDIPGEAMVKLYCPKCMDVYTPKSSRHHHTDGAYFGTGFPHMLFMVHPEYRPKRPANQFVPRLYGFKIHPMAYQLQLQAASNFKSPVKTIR

Row | Substance | solubility in G1/S (log2) (HeLa Kyoto [1]) | melting temperature (HeLa Kyoto [2]; cell cycle stage: G1/S) | melting temperature (HeLa Kyoto [2]; cell cycle stage: mitosis) | solubility change mitosis (log2) (HeLa Kyoto [3]) | thermal stability score (HeLa Kyoto [4]; [5]) | thermal stability score (HeLa Kyoto [4]; cell cycle stage: mitosis)
1 | MATANFGKIQIGIYVEIKRSDGRIHQAMVTSLNEDNESVTVEWIENGDTKGKEIDLESIFSLNPDLVPDEEIEPSPETPPPPASSAKVNKIVKNRRTVASIKNDPPSRDNRVVGSARARPSQFPEQSSSAQQNGSVSDISPVQAAKKEFGPPSRRKSNCVKEVEKLQEKREKRRLQQQELREKRAQDVDATNPNYEIMCMIRDFRGSLDYRPLTTADPIDEHRICVCVRKRPLNKKETQMKDLDVITIPSKDVVMVHEPKQKVDLTRYLENQTFRFDYAFDDSAPNEMVYRFTARPLVETIFERGMATCFAYGQTGSGKTHTMGGDFSGKNQDCSKGIYALAARDVFLMLKKPNYKKLELQVYATFFEIYSGKVFDLLNRKTKLRVLEDGKQQVQVVGLQEREVKCVEDVLKLIDIGNSCRTSGQTSANAHSSRSHAVFQIILRRKGKLHGKFSLIDLAGNERGADTSSADRQTRLEGAEINKSLLALKECIRALGRNKPHTPFRASKLTQVLRDSFIGENSRTCMIATISPGMASCENTLNTLRYANRVKELTVDPTAAGDVRPIMHHPPNQIDDLETQWGVGSSPQRDDLKLLCEQNEEEVSPQLFTFHEAVSQMVEMEEQVVEDHRAVFQESIRWLEDEKALLEMTEEVDYDVDSYATQLEAILEQKIDILTELRDKVKSFRAALQEEEQASKQINPKRPRAL [KIF2A] | -0.149 | 50 °C | 50.1 °C | -0.0102 | 1.7 | 1.64
2 | TSR3 | 0.0751 | 54.3 °C | 54.3 °C | -0.12 | 0.927 | -0.253
3 | CSNK2B | 0.227 | 50.8 °C | 51.1 °C | 0.0236 | 0.696 | 0.623
4 | MSSSHFASRHRKDISTEMIRTKIAHRKSLSQKENRHKEYERNRHFGLKDVNIPTLEGRILVELDETSQGLVPEKTNVKPRAMKTILGDQRKQMLQKYKEEKQLQKLKEQREKAKRGIFKVGRYRPDMPCFLLSNQNAVKAEPKKAIPSSVRITRSKAKDQMEQTKIDNESDVRAIRPGPRQTSEKKVSDKEKKVVQPVMPTSLRMTRSATQAAKQVPRTVSSTTARKPVTRAANENEPEGKVPSKGRPAKNVETKPDKGISCKVDSEENTLNSQTNATSGMNPDGVLSKMENLPEINTAKIKGKNSFAPKDFMFQPLDGLKTYQVTPMTPRSANAFLTPSYTWTPLKTEVDESQATKEILAQKCKTYSTKTIQQDSNKLPCPLGPLTVWHEEHVLNKNEATTKNLNGLPIKEVPSLERNEGRIAQPHHGVPYFRNILQSETEKLTSHCFEWDRKLELDIPDDAKDLIRTAVGQTRLLMKERFKQFEGLVDDCEYKRGIKETTCTDLDGFWDMVSFQIEDVIHKFNNLIKLEESGWQVNNNMNHNMNKNVFRKKVVSGIASKPKQDDAGRIAARNRLAAIKNAMRERIRQEECAETAVSVIPKEVDKIVFDAGFFRVESPVKLFSGLSVSSEGPSQRLGTPKSVNKAVSQSRNEMGIPQQTTSPENAGPQNTKSEHVKKTLFLSIPESRSSIEDAQCPGLPDLIEENHVVNKTDLKVDCLSSERMSLPLLAGGVADDINTNKKEGISDVVEGMELNSSITSQDVLMSSPEKNTASQNSILEEGETKISQSELFDNKSLTTECHLLDSPGLNCSNPFTQLERRHQEHARHISFGGNLITFSPLQPGEF [DLGAP5] | 0.097 | 49.6 °C | 49.5 °C | -0.122 | 0.319 | 1.63
5 | MSRLGALGGARAGLGLLLGTAAGLGFLCLLYSQRWKRTQRHGRSQSLPNSLDYTQTSDPGRHVMLLRAVPGGAGDASVLPSLPREGQEKVLDRLDFVLTSLVALRREVEELRSSLRGLAGEIVGEVRCHMEENQRVARRRRFPFVRERSDSTGSSSVYFTASSGATFTDAESEGGYTTANAESDNERDSDKESEDGEDEVSCETVKMGRKDSLDLEEEAASGASSALEAGGSSGLEDVLPLLQQADELHRGDEQGKREGFQLLLNNKLVYGSRQDFLWRLARAYSDMCELTEEVSEKKSYALDGKEEAEAALEKGDESADCHLWYAVLCGQLAEHESIQRRIQSGFSFKEHVDKAIALQPENPMAHFLLGRWCYQVSHLSWLEKKTATALLESPLSATVEDALQSFLKAEELQPGFSKAGRVYISKCYRELGKNSEARWWMKLALELPDVTKEDLAIQKDLEELEVILRD [RMDN3] | -0.0304 | 51.1 °C | 50.8 °C | -0.102 | 0.252 | -0.0237
6 | MPALSTGSGSDTGLYELLAALPAQLQPHVDSQEDLTFLWDMFGEKSLHSLVKIHEKLHYYEKQSPVPILHGAAALADDLAEELQNKPLNSEIRELLKLLSKPNVKALLSVHDTVAQKNYDPVLPPMPEDIDDEEDSVKIIRLVKNREPLGATIKKDEQTGAIIVARIMRGGAADRSGLIHVGDELREVNGIPVEDKRPEEIIQILAQSQGAITFKIIPGSKEETPSKEGKMFIKALFDYNPNEDKAIPCKEAGLSFKKGDILQIMSQDDATWWQAKHEADANPRAGLIPSKHFQERRLALRRPEILVQPLKVSNRKSSGFRKSFRLSRKDKKTNKSMYECKKSDQYDTADVPTYEEVTPYRRQTNEKYRLVVLVGPVGVGLNELKRKLLISDTQHYGVTVPHTTRARRSQESDGVEYIFISKHLFETDVQNNKFIEYGEYKNNYYGTSIDSVRSVLAKNKVCLLDVQPHTVKHLRTLEFKPYVIFIKPPSIERLRETRKNAKIISSRDDQGAAKPFTEEDFQEMIKSAQIMESQYGHLFDKIIINDDLTVAFNELKTTFDKLETETHWVPVSWLHS [MPP7] | -0.0584 | 47.8 °C | 48.5 °C | 0.00867 | 0.55 | 1.76
7 | MITSELPVLQDSTNETTAHSDAGSELEETEVKGKRKRGRPGRPPSTNKKPRKSPGEKSRIEAGIRGAGRGRANGHPQQNGEGEPVTLFEVVKLGKSAMQSVVDDWIESYKQDRDIALLDLINFFIQCSGCRGTVRIEMFRNMQNAEIIRKMTEEFDEDSGDYPLTMPGPQWKKFRSNFCEFIGVLIRQCQYSIIYDEYMMDTVISLLTGLSDSQVRAFRHTSTLAAMKLMTALVNVALNLSIHQDNTQRQYEAERNKMIGKRANERLELLLQKRKELQENQDEIENMMNSIFKGIFVHRYRDAIAEIRAICIEEIGVWMKMYSDAFLNDSYLKYVGWTLHDRQGEVRLKCLKALQSLYTNRELFPKLELFTNRFKDRIVSMTLDKEYDVAVEAIRLVTLILHGSEEALSNEDCENVYHLVYSAHRPVAVAAGEFLHKKLFSRHDPQAEEALAKRRGRNSPNGNLIRMLVLFFLESELHEHAAYLVDSLWESSQELLKDWECMTELLLEEPVQGEEAMSDRQESALIELMVCTIRQAAEAHPPVGRGTGKRVLTAKERKTQIDDRNKLTEHFIITLPMLLSKYSADAEKVANLLQIPQYFDLEIYSTGRMEKHLDALLKQIKFVVEKHVESDVLEACSKTYSILCSEEYTIQNRVDIARSQLIDEFVDRFNHSVEDLLQEGEEADDDDIYNVLSTLKRLTSFHNAHDLTKWDLFGNCYRLLKTGIEHGAMPEQIVVQALQCSHYSILWQLVKITDGSPSKEDLLVLRKTVKSFLAVCQQCLSNVNTPVKEQAFMLLCDLLMIFSHQLMTGGREGLQPLVFNPDTGLQSELLSFVMDHVFIDQDEENQSMEGDEEDEANKIEALHKRRNLLAAFSKLIIYDIVDMHAAADIFKHYMKYYNDYGDIIKETLSKTRQIDKIQCAKTLILSLQQLFNELVQEQGPNLDRTSAHVSGIKELARRFALTFGLDQIKTREAVATLHKDGIEFAFKYQNQKGQEYPPPNLAFLEVLSEFSSKLLRQDKKTVHSYLEKFLTEQMMERREDVWLPLISYRNSLVTGGEDDRMSVNSGSSSSKTSSVRNKKGRPPLHKKRVEDESLDNTWLNRTDTMIQTPGPLPAPQLTSTVLRENSRPMGDQIQEPESEHGSEPDFLHNPQMQISWLGQPKLEDLNRKDRTGMNYMKVRTGVRHAVRGLMEEDAEPIFEDVMMSSRSQLEDMNEEFEDTMVIDLPPSRNRRERAELRPDFFDSAAIIEDDSGFGMPMF [STAG1] | -0.226 | 52 °C | 50.6 °C | 0.0363 | -0.0959 | -1.71
8 | MTCYRGFLLGSCCRVAGGRAAALRGPGAGGPAARPRLGGDGGGRRHLGQGQPRELAGCGSRADGGFRPSRVVVVAKTTRYEFEQQRYRYAELSEEDLKQLLALKGSSYSGLLERHHIHTKNVEHIIDSLRNEGIEVRLVKRREYDEETVRWADAVIAAGGDGTMLLAASKVLDRLKPVIGVNTDPERSEGHLCLPVRYTHSFPEALQKFYRGEFRWLWRQRIRLYLEGTGINPVPVDLHEQQLSLNQHNRALNIERAHDERSEASGPQLLPVRALNEVFIGESLSSRASYYEISVDDGPWEKQKSSGLNLCTGTGSKAWSFNINRVATQAVEDVLNIAKRQGNLSLPLNRELVEKVTNEYNESLLYSPEEPKILFSIREPIANRVFSSSRQRCFSSKVCVRSRCWDACMVVDGGTSFEFNDGAIASMMINKEDELRTVLLEQ [NADK2] | 0.0487 | 55.3 °C | 55.5 °C | -0.121 | -0.37 | 2.77
9 | GPATCH8 | -0.561 | 47.8 °C | 49.6 °C | 0.335 | 0.236 | 4.11
10 | MAIPGRQYGLILPKKTQQLHPVLQKPSVFGNDSDDDDETSVSESLQREAAKKQAMKQTKLEIQKALAEDATVYEYDSIYDEMQKKKEENNPKLLLGKDRKPKYIHNLLKAVEIRKKEQEKRMEKKIQREREMEKGEFDDKEAFVTSAYKKKLQERAEEEEREKRAAALEACLDVTKQKDLSGFYRHLLNQAVGEEEVPKCSFREARSGIKEEKSRGFSNEVSSKNRIPQEKCILQTDVKVEENPDADSDFDAKSSADDEIEETRVNCRREKVIETPENDFKHHRSQNHSRSPSEERGHSTRHHTKGSRTSRGHEKREDQHQQKQSRDQENHYTDRDYRKERDSHRHREASHRDSHWKRHEQEDKPRARDQRERSDRVWKREKDREKYSQREQERDRQQNDQNRPSEKGEKEEKSKAKEEHMKVRKERYENNDKYRDREKREVGVQSSERNQDRKESSPNSRAKDKFLDQERSNKMRNMAKDKERNQEKPSNSESSLGAKHRLTEEGQEKGKEQERPPEAVSKFAKRNNEETVMSARDRYLARQMARVNAKTYIEKEDD [NSRP1] | -0.433 | 55.3 °C | 55.6 °C | 0.242 | 0.0783 | -1.16
11 | MAEEQGRERDSVPKPSVLFLHPDLGVGGAERLVLDAALALQARGCSVKIWTAHYDPGHCFAESRELPVRCAGDWLPRGLGWGGRGAAVCAYVRMVFLALYVLFLADEEFDVVVCDQVSACIPVFRLARRRKKILFYCHFPDLLLTKRDSFLKRLYRAPIDWIEEYTTGMADCILVNSQFTAAVFKETFKSLSHIDPDVLYPSLNVTSFDSVVPEKLDDLVPKGKKFLLLSINRYERKKNLTLALEALVQLRGRLTSQDWERVHLIVAGGYDERVLENVEHYQELKKMVQQSDLGQYVTFLRSFSDKQKISLLHSCTCVLYTPSNEHFGIVPLEAMYMQCPVIAVNSGGPLESIDHSVTGFLCEPDPVHFSEAIEKFIREPSLKATMGLAGRARVKEKFSPEAFTEQLYRYVTKLLV [ALG2] | -0.0813 | 51 °C | 51.3 °C | -0.229 | 0.227 | 0.342
